Kd data for 1 substance are collected here from PMC10926671.

The target of this test is H3K27me3 peptide. Kind of test: ITC.

The Kd is a measure of binding affinity in units of concentration. Lower therefore signals higher affinity. In turn, “MBP-BP1 (maltose-binding protein-tagged bromo-adjacent homology-plant homeodomain domain containing protein 1) (natural protein)” yielded an equilibrium dissociation constant (Kd) of 16.2 µM.
